Among the data in the supplement of paper PMC10567573 are protein stability index values, retold here.

The chains are these.
B1: MYBL2 (parent)
chain: VKKSCWTEEEDRIICEAHKVLGNR
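Note: lentivirally expressed fusions sorted by FACS into six bins by GFP to DsRed ratio, PSI derived from sequencing read proportions per bin multiplied by bin number.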

Variants of B1 are the subject of the series. Put plainly: protein stability index of a GFP-peptide fusion (GPS, HEK-293T) (PSI 1-6); higher = more stable. The settings on record: c terminus: a fixed tail appended.
Take VKKSCWTEEEDRIICEAHKVLGNP [R24P]: the protein stability index came out at 3.7.

In the case of VKKSCWTEEEDRIICEAHKVLGNN [R24N], the protein stability index worked out at 3.59.

Turning to VKKSCWTEEEDRIICEAHKVLGNK [R24K], the protein stability index came to 4.21.

In the case of VKKSCWTEEEDRIICEAHKVLGNM [R24M], the protein stability index was 2.86.

With VKKSCWTEEEDRIICEAHKVLGND [R24D], the protein stability index amounted to 4.19.

Turning to VKKSCWTEEEDRIICEAHKVLGNV [R24V], the protein stability index came to 3.47.

For VKKSCWTEEEDRIICEAHKVLGNI [R24I], the protein stability index is 2.69.

In the case of VKKSCWTEEEDRIICEAHKVLGNH [R24H], the protein stability index came out at 3.49.

With VKKSCWTEEEDRIICEAHKVLGNS [R24S], the protein stability index stood at 3.63.

VKKSCWTEEEDRIICEAHKVLGNG [R24G]: the protein stability index was determined as 4.11.

For the variant VKKSCWTEEEDRIICEAHKVLGNW [R24W], the protein stability index turned out to be 1.86.

For the variant VKKSCWTEEEDRIICEAHKVLGNF [R24F], the protein stability index was 2.4.

VKKSCWTEEEDRIICEAHKVLGNQ [R24Q]: the protein stability index came to 4.15.

Consider VKKSCWTEEEDRIICEAHKVLGNL [R24L], for which the protein stability index is 3.32.

Regarding VKKSCWTEEEDRIICEAHKVLGNT [R24T], the protein stability index is 3.95.

With VKKSCWTEEEDRIICEAHKVLGNE [R24E], the protein stability index is 4.05.

As to VKKSCWTEEEDRIICEAHKVLGNY [R24Y], the protein stability index was 3.06.

VKKSCWTEEEDRIICEAHKVLGNC [R24C]: the protein stability index was determined as 3.3.

VKKSCWTEEEDRIICEAHKVLGNA [R24A]: the protein stability index was determined as 3.42.

As to VKKSCWTEEEDRIICEAHKVLGFR [N23F], the protein stability index worked out at 2.21.

As to VKKSCWTEEEDRIICEAHKVLGWR [N23W], the protein stability index stood at 2.59.

Turning to VKKSCWTEEEDRIICEAHKVLGRR [N23R], the protein stability index came to 3.64.

Regarding VKKSCWTEEEDRIICEAHKVLGKR [N23K], the protein stability index worked out at 2.59.

For the variant VKKSCWTEEEDRIICEAHKVLGDR [N23D], the protein stability index came to 3.64.

As to VKKSCWTEEEDRIICEAHKVLGER [N23E], the protein stability index is 3.96.

In the case of VKKSCWTEEEDRIICEAHKVLGGR [N23G], the protein stability index is 2.57.

In the case of VKKSCWTEEEDRIICEAHKVLGLR [N23L], the protein stability index is 2.35.

With VKKSCWTEEEDRIICEAHKVLGQR [N23Q], the protein stability index worked out at 2.95.

As for VKKSCWTEEEDRIICEAHKVLGVR [N23V], the protein stability index was determined as 2.93.

Turning to VKKSCWTEEEDRIICEAHKVLGYR [N23Y], the protein stability index is 3.01.

Regarding VKKSCWTEEEDRIICEAHKVLGPR [N23P], the protein stability index was 3.77.

Regarding VKKSCWTEEEDRIICEAHKVLGTR [N23T], the protein stability index was 3.41.

Turning to VKKSCWTEEEDRIICEAHKVLGAR [N23A], the protein stability index worked out at 3.08.

On to VKKSCWTEEEDRIICEAHKVLGMR [N23M], for which the protein stability index is 2.1.

As for VKKSCWTEEEDRIICEAHKVLGSR [N23S], the protein stability index came out at 2.9.

On to VKKSCWTEEEDRIICEAHKVLGIR [N23I], for which the protein stability index came to 2.63.

With VKKSCWTEEEDRIICEAHKVLGCR [N23C], the protein stability index amounted to 3.23.

As to VKKSCWTEEEDRIICEAHKVLGHR [N23H], the protein stability index was found to be 3.71.

Turning to VKKSCWTEEEDRIICEAHKQLGNR [V20Q], the protein stability index was found to be 4.5.

Regarding VKKSCWTEEEDRIICEAHKLLGNR [V20L], the protein stability index amounted to 3.15.

As for VKKSCWTEEEDRIICEAHKNLGNR [V20N], the protein stability index was determined as 3.99.

Consider VKKSCWTEEEDRIICEAHKDLGNR [V20D], for which the protein stability index is 4.37.

VKKSCWTEEEDRIICEAHKTLGNR [V20T]: the protein stability index amounted to 3.34.

On to VKKSCWTEEEDRIICEAHKMLGNR [V20M], for which the protein stability index is 3.15.

Take VKKSCWTEEEDRIICEAHKRLGNR [V20R]: the protein stability index was found to be 3.59.

With VKKSCWTEEEDRIICEAHKFLGNR [V20F], the protein stability index worked out at 2.86.

As to VKKSCWTEEEDRIICEAHKCLGNR [V20C], the protein stability index is 3.84.

As for VKKSCWTEEEDRIICEAHKYLGNR [V20Y], the protein stability index was 3.12.

For the variant VKKSCWTEEEDRIICEAHKHLGNR [V20H], the protein stability index is 2.55.

Take VKKSCWTEEEDRIICEAHKKLGNR [V20K]: the protein stability index came to 3.67.

In the case of VKKSCWTEEEDRIICEAHKILGNR [V20I], the protein stability index was 2.75.

In the case of VKKSCWTEEEDRIICEAHKWLGNR [V20W], the protein stability index was determined as 2.04.

Consider VKKSCWTEEEDRIICEAHKELGNR [V20E], for which the protein stability index is 4.03.

VKKSCWTEEEDRIICEAHKSLGNR [V20S]: the protein stability index turned out to be 3.55.

As for VKKSCWTEEEDRIICEAHKPLGNR [V20P], the protein stability index is 3.72.

With VKKSCWTEEEDRIICEAHKALGNR [V20A], the protein stability index was 3.51.

Consider VKKSCWTEEEDRIICEAHKGLGNR [V20G], for which the protein stability index turned out to be 3.67.

As to VKKSCWTEEEDRIICEAHKVPGNR [L21P], the protein stability index worked out at 3.8.

Turning to VKKSCWTEEEDRIICEAHKVCGNR [L21C], the protein stability index was 3.66.

As to VKKSCWTEEEDRIICEAHKVTGNR [L21T], the protein stability index came out at 3.44.

Take VKKSCWTEEEDRIICEAHKVEGNR [L21E]: the protein stability index was 3.83.

Consider VKKSCWTEEEDRIICEAHKVDGNR [L21D], for which the protein stability index came out at 4.36.

As for VKKSCWTEEEDRIICEAHKVVGNR [L21V], the protein stability index was 3.35.

On to VKKSCWTEEEDRIICEAHKVAGNR [L21A], for which the protein stability index came out at 3.42.

Regarding VKKSCWTEEEDRIICEAHKVIGNR [L21I], the protein stability index worked out at 3.15.

Take VKKSCWTEEEDRIICEAHKVNGNR [L21N]: the protein stability index was found to be 3.83.

Regarding VKKSCWTEEEDRIICEAHKVKGNR [L21K], the protein stability index turned out to be 3.26.

Consider VKKSCWTEEEDRIICEAHKVFGNR [L21F], for which the protein stability index came out at 2.94.

With VKKSCWTEEEDRIICEAHKVSGNR [L21S], the protein stability index was determined as 3.3.

For the variant VKKSCWTEEEDRIICEAHKVGGNR [L21G], the protein stability index came out at 3.44.

For the variant VKKSCWTEEEDRIICEAHKVYGNR [L21Y], the protein stability index was found to be 3.71.

With VKKSCWTEEEDRIICEAHKVHGNR [L21H], the protein stability index was found to be 3.53.

In the case of VKKSCWTEEEDRIICEAHKVQGNR [L21Q], the protein stability index was determined as 3.64.

In the case of VKKSCWTEEEDRIICEAHKVWGNR [L21W], the protein stability index was determined as 3.33.

As to VKKSCWTEEEDRIICEAHKVMGNR [L21M], the protein stability index was determined as 3.79.

On to VKKSCWTEEEDRIICEAHWVLGNR [K19W], for which the protein stability index is 1.91.

Regarding VKKSCWTEEEDRIICEAHGVLGNR [K19G], the protein stability index worked out at 3.67.

VKKSCWTEEEDRIICEAHNVLGNR [K19N]: the protein stability index turned out to be 3.41.

With VKKSCWTEEEDRIICEAHLVLGNR [K19L], the protein stability index came out at 2.69.

As for VKKSCWTEEEDRIICEAHYVLGNR [K19Y], the protein stability index was 2.59.

On to VKKSCWTEEEDRIICEAHDVLGNR [K19D], for which the protein stability index turned out to be 3.86.

In the case of VKKSCWTEEEDRIICEAHMVLGNR [K19M], the protein stability index turned out to be 2.93.

Turning to VKKSCWTEEEDRIICEAHRVLGNR [K19R], the protein stability index is 3.23.

On to VKKSCWTEEEDRIICEAHPVLGNR [K19P], for which the protein stability index came out at 3.28.

Consider VKKSCWTEEEDRIICEAHEVLGNR [K19E], for which the protein stability index was 4.27.

As to VKKSCWTEEEDRIICEAHFVLGNR [K19F], the protein stability index turned out to be 2.19.

For VKKSCWTEEEDRIICEAHTVLGNR [K19T], the protein stability index is 3.44.

Regarding VKKSCWTEEEDRIICEAHQVLGNR [K19Q], the protein stability index came out at 4.09.

As for VKKSCWTEEEDRIICEAHSVLGNR [K19S], the protein stability index is 4.02.

Regarding VKKSCWTEEEDRIICEAHIVLGNR [K19I], the protein stability index was found to be 2.03.

For the variant VKKSCWTEEEDRIICEAHCVLGNR [K19C], the protein stability index was 3.3.

Take VKKSCWTEEEDRIICEAHAVLGNR [K19A]: the protein stability index came to 3.21.

For VKKSCWTEEEDRIICEAHVVLGNR [K19V], the protein stability index stood at 3.5.

VKKSCWTEEEDRIICEAHHVLGNR [K19H]: the protein stability index came to 2.99.
